This note sets out measurements from patent US20100291097A1.

Assay [1] addresses Oligomer-enriched preparation of the Aβ1-42 peptide (W. M. Keck Facility peptide). Briefly: ELISA, coated 2.2 µM; Ab 1:128 (start 0.5 µg/ml); mean of 3. (In an ELISA, binding on a coated surface is turned into a signal by an enzyme label.)
Assay [2] shares this target. Briefly: ELISA, coated 2.2 µM; Ab 1:2 (start 0.5 µg/ml); mean of 3.
The target in assay [3] is Monomer-enriched preparation of the Aβ1-42 peptide (W. M. Keck Facility peptide). The description is as above.
Chain of Monomer-enriched preparation of the Aβ1-42 peptide (W. M. Keck Facility peptide) (peptide, as listed by the source): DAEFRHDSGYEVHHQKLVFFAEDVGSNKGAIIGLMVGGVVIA
For assay [4], the target named is Oligomer-enriched preparation of the Aβ1-42 peptide (W. M. Keck Facility peptide). Briefly: ELISA, coated 2.2 µM; Ab 1:32 (start 0.5 µg/ml); mean of 3.
Chain of Oligomer-enriched preparation of the Aβ1-42 peptide (W. M. Keck Facility peptide) (peptide, as listed by the source): as above
The target of assay [5] is Monomer-enriched preparation of the Aβ1-42 peptide (W. M. Keck Facility peptide). The description is as above.
For assay [6] the target is unchanged. Briefly: ELISA, coated 2.2 µM; Ab 1:16 (start 0.5 µg/ml); mean of 3.
In assay [7] the target is Oligomer-enriched preparation of the Aβ1-42 peptide (W. M. Keck Facility peptide). Briefly: ELISA, coated 2.2 µM; Ab 1:64 (start 0.5 µg/ml); mean of 3.
Assay [8] has the same target. Briefly: ELISA, coated 2.2 µM; Ab 1:8 (start 0.5 µg/ml); mean of 3.
Assay [9] addresses Monomer-enriched preparation of the Aβ1-42 peptide (W. M. Keck Facility peptide). Briefly: ELISA, coated 2.2 µM; Ab 1:4 (start 0.5 µg/ml); mean of 3.

Consider 6E10 control antibody, for which the O.D. in [1] was 0.63 O.D; in assay [2], 3.59 O.D; in assay [3], 3.59 O.D; in [4] it was 1.32 O.D; in assay [5] it was 1.36 O.D; in [6], 1.98 O.D. The O.D. in assay [7] came out at 0.92 O.D; in assay [8], 2.98 O.D; in assay [9], 3.27 O.D.
